Numbering of substitutions follows the chain as printed. Numbers in names are those of the source.
B1: variant 18343, monovalent anti-CD3 scFv-heterodimeric Fc (VL hC3E-1-1L1, VH hC3E-1) (Fc fusion, not shown: a dimerising Fc or GST; small tags and cut ends)
scFv: EVQLVESGGGLVQPGGSLRLSCAASGVTFNYYGMSWIRQAPGKGLEWVASITNSGGRIYYPDSVKGRFTISRENTQKTLYLQMNSLRAEDTAVYYCTLDGRDGWVAYWGQGTLVTVSSGGGGSGGGGSGGGGSQSVLTQPPSASGTPGQRVTISCKRNTGNIGSNYVNWYQQLPGTAPKLLIYRDDKRPDGVPDRFSGSKSGTSASLAISGLQSEDEADYYCQSYSSGFIFGGGTKLTVL
notes: scFv order VH-(GGGGS)3-VL on Fc chain A; chain B is Fc only; also called v18343
B2: variant 19370, monovalent anti-CD3 scFv-heterodimeric Fc (VL hC3E-1_1L1d, VH hC3E-1) (Fc fusion, not shown: a dimerising Fc or GST; small tags and cut ends)
scFv: B1 scFv with S135V
notes: scFv order VH-(GGGGS)3-VL on Fc chain A; chain B is Fc only; also called v19370
B3: variant 21831, monovalent anti-CD3 scFv-heterodimeric Fc (VL hC3E-1_1L1d, VH hC3E-1(N53S)) (Fc fusion)
scFv: B1 scFv with N53S, S135V
notes: scFv order VH-(GGGGS)3-VL on Fc chain A; chain B is Fc only; also called v21831; not shown: Fc-only chain B is also left out
B4: variant 19373, monovalent anti-CD3 scFv-heterodimeric Fc (VL hC3E-1_1L1a, VH hC3E-1) (Fc fusion)
scFv: B1 scFv with S135F
notes: scFv order VH-(GGGGS)3-VL on Fc chain A; chain B is Fc only; also called v19373; not shown: The Fc-only chain B is not tied by number to this variant
B5: variant 21827, monovalent anti-CD3 scFv-heterodimeric Fc (VL hC3E-1_1L1d, VH hC3E-1(N53S_D102E)) (Fc fusion)
scFv: B1 scFv with N53S, D102E, S135V
notes: scFv order VH-(GGGGS)3-VL on Fc chain A; chain B is Fc only; also called v21827; not shown: Fc-only chain B is also left out
B6: variant 21829, monovalent anti-CD3 scFv-heterodimeric Fc (VL hC3E-1_1L1d, VH hC3E-1(N53R)) (Fc fusion)
scFv: B1 scFv with N53R, S135V
notes: scFv order VH-(GGGGS)3-VL on Fc chain A; chain B is Fc only; also called v21829; not shown: Fc-only chain B is also left out
B7: variant 21825, monovalent anti-CD3 scFv-heterodimeric Fc (VL hC3E-1_1L1d, VH hC3E-1(N53R_D102E)) (Fc fusion)
scFv: B1 scFv with N53R, D102E, S135V
notes: scFv order VH-(GGGGS)3-VL on Fc chain A; chain B is Fc only; also called v21825; not shown: Fc-only chain B is also left out
B8: variant 19372, monovalent anti-CD3 scFv-heterodimeric Fc (VL hC3E-1_1L1b, VH hC3E-1) (Fc fusion)
scFv: B1 scFv with S135L
notes: scFv order VH-(GGGGS)3-VL on Fc chain A; chain B is Fc only; also called v19372; not shown: The Fc-only chain B is not tied by number to this variant
B9: variant 19371, monovalent anti-CD3 scFv-heterodimeric Fc (VL hC3E-1_1L1c, VH hC3E-1) (Fc fusion)
scFv: B1 scFv with S135I
notes: scFv order VH-(GGGGS)3-VL on Fc chain A; chain B is Fc only; also called v19371; not shown: The Fc-only chain B is not tied by number to this variant
B10: variant 19363, monovalent anti-CD3 scFv-heterodimeric Fc (VL hC3E-1_6L3a (D52N), VH hC3E-1) (Fc fusion, not shown: a dimerising Fc or GST; small tags and cut ends)
scFv: EVQLVESGGGLVQPGGSLRLSCAASGVTFNYYGMSWIRQAPGKGLEWVASITNSGGRIYYPDSVKGRFTISRENTQKTLYLQMNSLRAEDTAVYYCTLDGRDGWVAYWGQGTLVTVSSGGGGSGGGGSGGGGSQFVLTQPPSASGTPGQRVTISCKRNTGNIGSNYVNWYQQLPGTAPKTIIYRNDKRPDGVPDRFSGSIDSSSNSASLAISGLQSEDEADYYCQSYSSGFIFGGGTKLTVL
notes: scFv order VH-(GGGGS)3-VL on Fc chain A; chain B is Fc only; also called v19363
B11: variant 19362, monovalent anti-CD3 scFv-heterodimeric Fc (VL hC3E-1_6L3b (D52N), VH hC3E-1) (Fc fusion, not shown: a dimerising Fc or GST; small tags and cut ends)
scFv: B10 scFv with Q134N, V136M, P141H, A143V, G145E, T146S, Q149K, R150T
notes: scFv order VH-(GGGGS)3-VL on Fc chain A; chain B is Fc only; also called v19362
B12: variant 18346, monovalent anti-CD3 scFv-heterodimeric Fc (VL hC3E-1 wildtype, VH hC3E-1 wildtype) (Fc fusion)
scFv: EVQLVESGGGLVQPGGSLRLSCAASGVTFNYYGMSWIRQAPGKGLEWVASITNSGGRIYYPDSVKGRFTISRENTQKTLYLQMNSLRAEDTAVYYCTLDGRDGWVAYWGQGTLVTVSSGGGGSGGGGSGGGGSNFMLTQPHSVSESPGKTVTISCKRNTGNIGSNYVNWYQQHEGSSPTTIIYRDDKRPDGVSDRFSGSIDRSSKSASLTISNLKTEDEADYFCQSYSSGFIFGGGTKLTVL
notes: scFv order VH-(GGGGS)3-VL on Fc chain A; chain B is Fc only; also called v18346; parental construct v18346; not shown: Fc-only chain B is also left out
B13: variant 21826, monovalent anti-CD3 scFv-heterodimeric Fc (VL hC3E-1 (D52N), VH hC3E-1(N53R_D102E)) (Fc fusion)
scFv: B12 scFv with N53R, D102E, D185N
notes: scFv order VH-(GGGGS)3-VL on Fc chain A; chain B is Fc only; also called v21826; not shown: Fc-only chain B is also left out
B14: variant 18596, monovalent anti-CD3 scFv-heterodimeric Fc (VL hC3E-1, VH hC3E-1a D102E) (Fc fusion, not shown: a dimerising Fc or GST; small tags and cut ends)
scFv: B12 scFv with D102E
notes: scFv order VH-(GGGGS)3-VL on Fc chain A; chain B is Fc only; also called v18596
B15: variant 21828, monovalent anti-CD3 scFv-heterodimeric Fc (VL hC3E-1 (D52N), VH hC3E-1(N53S_D102E)) (Fc fusion)
scFv: B12 scFv with N53S, D102E, D185N
notes: scFv order VH-(GGGGS)3-VL on Fc chain A; chain B is Fc only; also called v21828; not shown: Fc-only chain B is also left out

Key:
[1] = biological target: T1, human CD3 expressed on T cells (Jurkat cells, human pan T cells/PBMC) (human, UniProt P07766 23-207); assay: cell ELISA on CD3+ Jurkat cells
T1 construct: whole, on cells; On T cells CD3 epsilon stands in the CD3 complex with the gamma, delta and zeta chains and the T-cell receptor; only the epsilon chain is written out; also called CD3+ Jurkat cells; human T cells
Experimental: Cells were centrifuged and seeded in a 96-well filter plate in 50% complete culture medium/50% Blocking buffer. Equal volumes of 2× anti-CD3 scFv-Fc constructs or controls were added to cells and incubated for 1 hour. The plate was washed 4 times using vacuum filtration. An HRP-conjugated anti-human IgG Fc gamma specific secondary antibody was added to the wells and further incubated for 1 hour. The plate is washed 7 times by vacuum filtration followed by the addition of TMB substrate at room temperature. The reaction was stopped by adding 1 M sulfuric acid and supernatant was transferred into a clear 96-well plate. Absorbance (450 nm) was read on a Spectramax 340PC plate reader with path-check correction. Binding of the different scFv-Fc constructs to Jurkat cells and the apparent binding affinities are shown in FIG. 7 and Table 7, respectively.

[2] = biological target: T2, Recombinant CD3epsilon/delta Fc fusion protein (Sino Biological) (human, UniProt P07766 23-126; P04234 22-105); assay: SPR (ProteOn XPR36), Equilibrium Fit, mean of three runs
T2 construct: Bought reagent; also called recombinant CD3 fusion protein; human CD3 antigen; not shown: Fc of the bought fusion protein; not described
Experimental: (§1) All SPR binding experiments were carried out using a BioRad ProteOn XPR36 instrument (Bio-Rad Laboratories, Hercules, Calif.) at 25° C. with 10 mM HEPES, 150 mM NaCl, 3.4 mM EDTA, and 0.05% Tween 20 at pH 7.4. Recombinant CD3epsilon/delta Fc fusion protein (Sino Biological, Wayne, Pa.) was captured on anti-Fc capture sensorchips. Purified antibodies were indirectly captured on the sensorchip by binding the recombinant CD3 fusion protein when injected at 25 μL/min for 240s (resulting in approx. 500 RUs) following a buffer injection to establish a stable baseline. Resultant KD values were determined from binding isotherms using the Equilibrium Fit model with reported values as the mean of three independent runs.

[3] = biological target: T1, human CD3 expressed on T cells (Jurkat …); assay: flow cytometry on human T cells
Experimental: (§2) Frozen human pan T cells or PBMCs were thawed and incubated with either media or serial dilutions of the anti-CD3 scFv-Fc constructs for one hour at 4° C. Commercially available SP34-2 antibody was used as positive controls while untreated cultures were used as negative controls. Following incubation with the anti-CD3 scFv constructs, the cells were washed and stained with a panel of conjugated antibodies specific for CD4, CD8, and IgG-Fc. The samples were acquired on a flow cytometer and analyzed using FlowJo version 10.1 software.

[4] = biological target: T3, cynomolgus monkey CD3 expressed on T cells (cynomolgus pan T cells/PBMC, HSC-F cell line) (cynomolgus monkey, UniProt Q95LI5 22-198); assay: flow cytometry on cynomolgus T cells
T3 construct: whole, on cells; On T cells in the CD3 complex with the other subunits; only the epsilon chain is written out; also called cyno CD3; cyno T cells
Experimental: (§3) Frozen Cynomolgus monkey PBMCs were thawed then washed with RPMI-1640 media. Pan T cells were then isolated from the PBMCs using a negative isolation kit (Miltenyi Biotec, San Diego, Calif.) as per the manufacturer's instructions. The pan T cells were incubated in media alone or media containing serial dilutions of the anti-CD3 scFv-Fc constructs for one hour at 4° C. Commercially available SP34-2 antibody was used as positive controls while untreated cultures were used as negative controls. Following incubation with the anti-CD3 scFv constructs, the cells were washed and stained with a panel of conjugated antibodies specific for CD4, CD8, and IgG-Fc. The samples were acquired on a flow cytometer and analyzed using FlowJo version 10.1 software.

[5] = biological target: T1, human CD3 expressed on T cells (Jurkat …); assay: flow cytometry on human T cells gated CD4+, detection with anti-IgG-Fc, geo MFI
Experimental: as §2

[6] = biological target: T2, Recombinant CD3epsilon/delta Fc fusion …; assay: SPR (ProteOn XPR36), CD3epsilon/delta Fc fusion captured on anti-Fc chip, variant injected for 240 s; kinetic constants printed above the sensorgrams
Experimental: as §1

[7] = biological target: T3, cynomolgus monkey CD3 expressed on T …; assay: flow cytometry on cynomolgus pan T cells gated CD4+, detection with anti-IgG-Fc, geo MFI
Experimental: as §3

T3 sequence (Q95LI5 22-198): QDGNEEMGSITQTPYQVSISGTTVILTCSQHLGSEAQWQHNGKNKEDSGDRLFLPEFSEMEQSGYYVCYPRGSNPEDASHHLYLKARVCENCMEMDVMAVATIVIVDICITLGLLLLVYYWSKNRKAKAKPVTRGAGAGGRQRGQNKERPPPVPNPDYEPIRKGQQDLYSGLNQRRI
T1 sequence (P07766 23-207): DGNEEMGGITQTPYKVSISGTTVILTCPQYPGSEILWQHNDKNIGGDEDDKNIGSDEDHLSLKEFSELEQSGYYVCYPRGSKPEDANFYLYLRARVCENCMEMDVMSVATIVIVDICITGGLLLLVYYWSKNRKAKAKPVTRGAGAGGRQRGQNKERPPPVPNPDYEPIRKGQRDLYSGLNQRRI
T2 sequence (P07766 23-126, stated change not applied, chain 1 of 2): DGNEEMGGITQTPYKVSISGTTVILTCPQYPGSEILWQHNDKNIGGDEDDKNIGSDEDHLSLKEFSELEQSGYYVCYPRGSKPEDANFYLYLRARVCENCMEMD
T2 sequence (P04234 22-105, stated change not applied, chain 2 of 2): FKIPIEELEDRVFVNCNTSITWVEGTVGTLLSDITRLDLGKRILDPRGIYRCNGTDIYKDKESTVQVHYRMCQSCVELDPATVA

Row | Binder | EC50 [1] [nM] | Kd [2] [nM] | EC50 [3] [nM] | EC50 [4] [nM] | EC50 (read off the curve) [5] [µg/mL] | Kd [6] [nM] | koff [6] [s⁻¹] | kon [6] [M⁻¹ s⁻¹] | EC50 (read off the curve) [7] [µg/mL]
1 | B1 | 2.61 | 30 | – | – | – | – | – | – | –
2 | B2 | 3.09 | 6.8 | 0.7 | 2.4 | – | – | – | – | –
3 | B3 | 3.96 | 22.9 | 1 | 40.7 | ~1 | 23 | 0.0225 | 977000 | –
4 | B4 | 0.99 | 3 | – | – | – | – | – | – | –
5 | B5 | – | – | 1.9 | 16.3 | – | – | – | – | –
6 | B6 | 0.65 | 3.06 | 0.4 | 1.6 | – | 3.12 | 0.00382 | 1.22e+06 | –
7 | B7 | – | – | – | 7 | – | – | – | – | –
8 | B8 | 3.47 | 3.1 | 0.9 | 9.3 | – | – | – | – | –
9 | B9 | 1.72 | 7.1 | 0.5 | 3.4 | – | – | – | – | –
10 | B10 | 1.45 | 6.6 | 0.7 | 7.1 | – | 6.62 | 0.00383 | 578000 | –
11 | B11 | 1.35 | 3 | ~0.6 | 1.9 | – | 3.03 | 0.00242 | 798000 | ~2
12 | B12 | 0.34 | 0.26 | ~0.3 | 1.4 | – | 0.117 | 0.000163 | 1.39e+06 | ~1
13 | B13 | ~36100 | – | 1.7 | 2.5 | – | – | – | – | –
14 | B14 | 2.57 | 9 | 69.5 | 172 | – | – | – | – | –
15 | B15 | ~32.8 | – | 1.6 | 104 | – | – | – | – | –
